Source: article PMC12707108, “CpoS-Inc interactions facilitate host cell modulation during Chlamydia trachomatis infection” (Infection and Immunity, 2025)
Where “and” joins values, the source holds several entries; their conditions need not be identical. Equal entries are not always repeated.

What was measured:
[1] = molecular target: MBP-InaC C-ter (Chlamydia trachomatis serovar L2 (LGV 434/Bu)); experiment: SEC + other: mass photometry + native gel or EMSA; purified MBP-tagged proteins; Superdex 200 SEC, mass photometry of SEC fractions in DPBS, native PAGE
[2] = molecular target: MBP-IPAM C-ter (Chlamydia trachomatis serovar L2 (LGV 434/Bu)); experiment: as above
[3] = molecular target: the molecule itself; experiment: mass photometry; fractions of MBP-CpoS C-ter from Superdex 200 SEC (13 and 14 mL); 100 nM protein added to DPBS, room temperature
[4] = molecular target: the molecule itself; experiment: not stated; CpoS C-ter in acidic and basic buffer conditions (Fig. S3C)
[5] = molecular target: the molecule itself; experiment: SEC + other: mass photometry + native gel or EMSA; purified MBP-tagged proteins; Superdex 200 SEC, mass photometry of SEC fractions in DPBS, native PAGE

Molecule: MBP-InaC C-ter (domain or fragment)
- stoichiometry N [1]: 2 and 3

Molecule: MBP-IPAM C-ter (domain or fragment)
- stoichiometry N [2]: 2 and 3

B1: MBP-CpoS C-ter (domain or fragment)
chain: RARSRRVEIERQLEVVSMQIEELEEEYKALSEVYRANLEARRAVSKYCQELEEKILDLCKRHAATICSIEEDAKQEIRHQTERFKQRLQQNQNTCSQLTAELCKLRSENKALSERLQVQASRRKK
notes: also called MBP-tagged CpoS C-ter; MBP-tagged CpoS; source: E. coli BL21 (DE3), purified (amylose resin, Superdex 200)
- stoichiometry N [3]: 4 and 8
- stoichiometry N [4]: 2

B2: MBP-IncA C-ter (domain or fragment)
chain: QKTANLHLYQDLQREVGSLKEINFMLSVLQKEFLHLSKEFATTSKDLSAVSQDFYSCLQGFRDNYKGFESLLDEYKNSTEEMRKLFSQEIIADLKGSVASLREEIRFLTPLAEEVRRLAHNQESLTAAIEELKTIRDSLRDEIGQLSQLSKTLTSQIALQRKESSDLCSQIRETLSSPRKSASPSTKSS
- stoichiometry N [5]: 4
